We go through 37 sequences from the supplement of paper PMC10567573.

The nature of the data set: protein stability index of a GFP-peptide fusion (GPS, HEK-293T) (PSI 1-6); higher = more stable. Conditions: c terminus: a fixed tail appended.

± gives the standard deviation.
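Note: 24-mer peptide tiles fused after GFP, lentivirally expressed, FACS-sorted into six equal bins by GFP/DsRed ratio, decoded by Illumina sequencing, PSI is the read-weighted mean bin number.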

As for RLHHPHKSVQHVVLQALFYLLDRA [PTPN9], the protein stability index (treatment: DMSO) is 2.28 ± 0.21 and the protein stability index (treatment: MLN4924 1 uM, 8 h) turned out to be 2.13 ± 0.36.

Regarding RLLMSQADKMTAEEVDQMFQFASI [MYL5], the protein stability index was 3.06 ± 0.26 (treatment: DMSO) and 3.1 ± 0.37 (treatment: MLN4924 1 uM, 8 h).

Turning to RLNIKKDDEFFHFVLLCFAIGALL [TMEM40], the protein stability index (treatment: DMSO) is 2.73 ± 0.8 and the protein stability index (treatment: MLN4924 1 uM, 8 h) is 2.19 ± 0.54.

In the case of RLPRAIGMSLAKELIFSARVLDGK [AUH], the protein stability index was determined as 1.83 ± 0.39 (treatment: DMSO) and 1.9 ± 0.2 (treatment: MLN4924 1 uM, 8 h).

With RLVLDAALALQARGCSVKIWTAHY [ALG2], the protein stability index was determined as 2.87 ± 0.68 (treatment: DMSO) and 2.69 ± 0.72 (treatment: MLN4924 1 uM, 8 h).

For the sequence RMENVTVLGEDVIVNDELYLNGAS [GMPPB], the protein stability index by setting is: (treatment: DMSO) 4.09 ± 0.072; (treatment: MLN4924 1 uM, 8 h) 4.1 ± 0.29.

Regarding RMGSSESTDSGFCLDSPGPLDSKE [CDC25A], the protein stability index worked out at 5.45 ± 0.14 (treatment: DMSO) and 5.47 ± 0.44 (treatment: MLN4924 1 uM, 8 h).

On to RMIFKLFSQETVMKFVPRYSLVLE [APMAP], for which the protein stability index was determined as 2.74 ± 0.55 (treatment: DMSO) and 2.51 ± 0.37 (treatment: MLN4924 1 uM, 8 h).

With RMLHRSTQTTNDGVCQSMCHDKYT [ZMYND11], the protein stability index was determined as 3.94 ± 0.18 (treatment: DMSO) and 4.04 ± 0.32 (treatment: MLN4924 1 uM, 8 h).

As for RNALENIRKEMKLLEQAGSLKGSL [CRYL1], the protein stability index is 3.32 ± 0.64 (treatment: DMSO) and 3.62 ± 0.32 (treatment: MLN4924 1 uM, 8 h).

RNEGVSSVLLGASNADQLMENIGA [KCNAB2] returned a protein stability index (treatment: DMSO) of 4.25 ± 0.09 and a protein stability index (treatment: MLN4924 1 uM, 8 h) of 4.42 ± 0.12.

RNGGKYCEGRRTRFRSCNTEDCPT [ADAMTS4] returned a protein stability index (treatment: DMSO) of 4.15 ± 0.34 and a protein stability index (treatment: MLN4924 1 uM, 8 h) of 4.09 ± 0.32.

As to RNMLGLLGNVAEVKELRPQLMTSQ [ZER1], the protein stability index was found to be 3.09 ± 0.3 (treatment: DMSO) and 3.49 ± 0.69 (treatment: MLN4924 1 uM, 8 h).

With RNRPSFDAILYYYQSGGRIRRPVN [KCNA3], the protein stability index amounted to 2.3 ± 0.22 (treatment: DMSO) and 2.58 ± 0.31 (treatment: MLN4924 1 uM, 8 h).

For the sequence RPKLSEEQQRIIAILLDAHHKTYD [VDR], the protein stability index by setting is: (treatment: DMSO) 2.58 ± 0.28; (treatment: MLN4924 1 uM, 8 h) 2.75 ± 0.41.

As for RPLRSREFPQFEPQRYPACAQMLP [TRAF3IP2], the protein stability index is 3.07 ± 0.44 (treatment: DMSO) and 3.44 ± 0.15 (treatment: MLN4924 1 uM, 8 h).

In the case of RPRQRQRVYPKCTWLTTPKSTWPR [TCF25], the protein stability index came out at 3.17 ± 0.43 (treatment: DMSO) and 3.23 ± 0.2 (treatment: MLN4924 1 uM, 8 h).

As to RPVNKLAELQCEVAALREEQKVLS [RASAL3], the protein stability index is, setting by setting: (treatment: DMSO) 3.99 ± 0.35; (treatment: MLN4924 1 uM, 8 h) 4.19 ± 0.26.

On to RQARKKGRHLELANQKLSEKLAAG [CCDC3], for which, under “treatment: DMSO”, the protein stability index is 4.777 ± 0.006.

Turning to RQKKLMHKLQEEKAFREEMKIFRE [CCDC70], the protein stability index was determined as 3.37 ± 0.28 (treatment: DMSO) and 3.59 ± 0.35 (treatment: MLN4924 1 uM, 8 h).

On to RQVLCEKCKSTLSPPEASPGPPAA [PWWP2B], for which the protein stability index was 4.88 ± 0.14 (treatment: DMSO) and 4.83 ± 0.37 (treatment: MLN4924 1 uM, 8 h).

Regarding RRKACQACRFTKCLRVGMLKEGVR [ESRRA], the protein stability index by setting is: (treatment: DMSO) 2.23 ± 0.25; (treatment: MLN4924 1 uM, 8 h) 2.3 ± 0.51.

Regarding RRLKQAKEEAQAEIEQYRLQREKE [ATP6V1G1], the protein stability index worked out at 5.47 ± 0.33 (treatment: DMSO) and 5.38 ± 0.25 (treatment: MLN4924 1 uM, 8 h).

The sequence RRRFREKKKAIQEEEERDQALQAK [YJU2B] registered a protein stability index (treatment: DMSO) of 5.26 ± 0.36 and a protein stability index (treatment: MLN4924 1 uM, 8 h) of 5.33 ± 0.23.

Take RSLQRGCRALRDPALDSLAYEYER [TRADD]: the protein stability index by setting is: (treatment: DMSO) 3.13 ± 0.059; (treatment: MLN4924 1 uM, 8 h) 3.47 ± 0.32.

Turning to RSPYAGLQLGAAKKPPVTFAEKGE [TRIM29], the protein stability index is, setting by setting: (treatment: DMSO) 4.09 ± 0.22; (treatment: MLN4924 1 uM, 8 h) 4.26 ± 0.2.

RSVKVICLGSLASKLSRKYVKAKK [FAN1]: the protein stability index turned out to be 2.37 ± 0.25 (treatment: DMSO) and 2.37 ± 0.28 (treatment: MLN4924 1 uM, 8 h).

For RSVSEPRDQHPQPSLGDSLESIPS [RTN2], the protein stability index runs as follows: (treatment: DMSO) 5.34 ± 0.41; (treatment: MLN4924 1 uM, 8 h) 5.17 ± 0.24.

In the case of RTIAETEAAYLKILESSQTLLSVL [SSNA1], the protein stability index was determined as 2.33 ± 0.29 (treatment: DMSO) and 2.72 ± 0.27 (treatment: MLN4924 1 uM, 8 h).

In turn, RTVNALEIELQAQHNLRDSLENTL [KRT34] had a protein stability index (treatment: DMSO) of 3.41 ± 0.064 and a protein stability index (treatment: MLN4924 1 uM, 8 h) of 3.64 ± 0.42.

Regarding RVFSQGSHAWEVALGGLQSWRVGV [TRIM35], the protein stability index worked out at 2.46 ± 0.42 (treatment: DMSO) and 2.31 ± 0.38 (treatment: MLN4924 1 uM, 8 h).

Regarding RVNKEHEHKLKVVRDQISHCTVKL [TRIM9], the protein stability index (treatment: DMSO) amounted to 3.29 ± 0.31 and the protein stability index (treatment: MLN4924 1 uM, 8 h) stood at 3.39 ± 0.29.

For the sequence RVQPVKDTAHDFRAKCRNMEHALR [TRIM35], the protein stability index stood at 2.96 ± 0.44 (treatment: DMSO) and 3.25 ± 0.36 (treatment: MLN4924 1 uM, 8 h).

With RVYHGWLFEGLGRDKAEELLQLPD [SLA], the protein stability index runs as follows: (treatment: DMSO) 3.01 ± 0.53; (treatment: MLN4924 1 uM, 8 h) 2.82 ± 0.57.

Consider RWWEDLERDFPCPVCRKTSRYRSL [TRIM39], for which the protein stability index turned out to be 2.36 ± 0.21 (treatment: DMSO) and 2.77 ± 0.56 (treatment: MLN4924 1 uM, 8 h).

In turn, RYALQLQQIQGLISSIEAQLSELR [KRT13] came in with a protein stability index (treatment: DMSO) of 3.17 ± 0.14 and a protein stability index (treatment: MLN4924 1 uM, 8 h) of 3.38 ± 0.35.

RYDPEPKSKWDEEWDKNKSAFPFS [CLINT1]: the protein stability index is, setting by setting: (treatment: DMSO) 3.84 ± 0.36; (treatment: MLN4924 1 uM, 8 h) 3.89 ± 0.21.
